This passage reports abundance fitness results from the Human Domainome abundance scans (Beltran et al. 2025).

± gives the uncertainty stated by the source.

To fix the notation:
B1: Homeobox protein cut-like 1, residues 941 to 1008; numbered along this chain, P39880 (parent)
chain: QEVDTIELTRQVKEKLAKNGICQRIFGEKVLGLSQGSVSDMLSRPKPWSKLTQKGREPFIRMQLWLNG

Variants of B1 are the subject of this data set. The data set can be described thus: abundance fitness (aPCA) (normalised: wild type 0, dead -1); higher = more abundant; growth selection in yeast, the domain comes from the species named. Conditions: Homo sapiens.
Take QEVDTIELTRQVKEKLAKNGICQRIFGEKVLGLSQGSVSDMLSRPKPWSKLTQKGTEPFIRMQLWLNG: the abundance fitness is -0.373 ± 0.082.

On to QEVDTIELTRQVKEKLAKNGICQRIFGEKVLGLSQGSVSDMLSRPKPWSKLTQKGSEPFIRMQLWLNG, for which the abundance fitness was -0.598 ± 0.076.

Consider QEVDTIELTRQVKEKLAKNGICQRIFGEKVLGLSQGSVSDMLSRPKPWSKLTQKGWEPFIRMQLWLNG, for which the abundance fitness is -0.456 ± 0.062.

Turning to QEVDTIELTRQVKEKLAKNGICQRIFGEKVLGLSQGSVSDMLSRPKPWSKLTQKGVEPFIRMQLWLNG, the abundance fitness was -0.39 ± 0.062.

For the variant QEVDTIELTRQVKEKLAKNGICQRIFGEKVLGLSQGSVSDMLSRPKPWSKLTQKGYEPFIRMQLWLNG, the abundance fitness was -0.444 ± 0.11.

As for QEVDTIELTRQVKEKLAKNGICQRIFGEKVLGLSQGSVSDMLSRPKPWSKLTQKGREPFICMQLWLNG, the abundance fitness was -0.277 ± 0.1.

As for QEVDTIELTRQVKEKLAKNGICQRIFGEKVLGLSQGSVSDMLSRPKPWSKLTQKGREPFIEMQLWLNG, the abundance fitness is -0.479 ± 0.086.

Consider QEVDTIELTRQVKEKLAKNGICQRIFGEKVLGLSQGSVSDMLSRPKPWSKLTQKGREPFIAMQLWLNG, for which the abundance fitness was -0.183 ± 0.061.

On to QEVDTIELTRQVKEKLAKNGICQRIFGEKVLGLSQGSVSDMLSRPKPWSKLTQKGREPFIFMQLWLNG, for which the abundance fitness was -0.991 ± 0.18.

On to QEVDTIELTRQVKEKLAKNGICQRIFGEKVLGLSQGSVSDMLSRPKPWSKLTQKGRTPFIRMQLWLNG, for which the abundance fitness is -0.15 ± 0.07.

Turning to QEVDTIELTRQVKEKLAKNGICQRIFGEKVLGLSQGSVSDMLSRPKPWSKLTQKGRGPFIRMQLWLNG, the abundance fitness was -0.126 ± 0.087.

In the case of QEVDTIELTRQVKEKLAKNGICQRIFGEKVLGLSQGSVSDMLSRPKPWSKLTQKGRAPFIRMQLWLNG, the abundance fitness was -0.046 ± 0.074.

For QEVDTIELTRQVKEKLAKNGICQRIFGEKVLGLSQGSVSDMLSRPKPWSKLTQKGRLPFIRMQLWLNG, the abundance fitness was -0.194 ± 0.042.

Consider QEVDTIELTRQVKEKLAKNGICQRIFGEKVLGLSQGSVSDMLSRPKPWSKLTQKGRNPFIRMQLWLNG, for which the abundance fitness was -0.055 ± 0.11.

For the variant QEVDTIELTRQVKEKLAKNGICQRIFGEKVLGLSQGSVSDMLSRPKPWSKLTQKGRMPFIRMQLWLNG, the abundance fitness was -0.203 ± 0.071.

As for QEVDTIELTRQVKEKLAKNGICQRIFGEKVLGLSQGSVSDMLSRPKPWSKLTQKGRFPFIRMQLWLNG, the abundance fitness is -0.294 ± 0.12.

As for QEVDTIELTRQVKEKLAKNGICQRIFGEKVLGLSQGSVSDMLSRPKPWSKLTQKGRYPFIRMQLWLNG, the abundance fitness is -0.453 ± 0.096.

As to QEVDTIELTRQVKEKLAKNGICQRIFGEKVLGLSQGSVSDMLSRPKPWSKLTQKGRKPFIRMQLWLNG, the abundance fitness is -0.091 ± 0.078.

In the case of QEVDTIELTRQVKEKLAKNGICQRIFGEKVLGLSQGSVSDMLSRPKPWSKLTQKGRIPFIRMQLWLNG, the abundance fitness is -0.097 ± 0.099.

For QEVDTIELTRQVKEKLAKNGICQRIFGEKVLGLSQGSVSDMLSRPKPWSKLTQKGRWPFIRMQLWLNG, the abundance fitness was -0.148 ± 0.081.

For the variant QEVDTIELTRQVKEKLAKNGICQRIFGEKVLGLSQGSVSDMLSRPKPWSKLTQKGRRPFIRMQLWLNG, the abundance fitness was -0.223 ± 0.054.

Turning to QEVDTIELTRQVKEKLAKNGICQRIFGEKVLGLSQGSVSDMLSRPKPWSKLTQKGRSPFIRMQLWLNG, the abundance fitness was -0.192 ± 0.058.

For the variant QEVDTIELTRQVKEKLAKNGICQRIFGEKVLGLSQGSVSDMLSRPKPWSKLTQKGRPPFIRMQLWLNG, the abundance fitness was -0.744 ± 0.083.

For QEVDTIELTRQVKEKLAKNGICQRIFGEKVLGLSQGSVSDMLSRPKPWSKLTQKGRQPFIRMQLWLNG, the abundance fitness is -0.147 ± 0.082.

On to QEVDTIELTRQVKEKLAKNGICQRIFGEKVLGLSQGSVSDMLSRPKPWSKLTQKGRVPFIRMQLWLNG, for which the abundance fitness was -0.192 ± 0.073.

Turning to QEVDTIELTRQVKEKLAKNGICQRIFGEKVLGLSQGSVSDMLSRPKPWSKLTQKGRDPFIRMQLWLNG, the abundance fitness is -0.162 ± 0.14.

Turning to QEVDTIELTRQVKEKLAKNGICQRIFGEKVLGLSQGSVSDMLSRPKPWSKLTQKGRHPFIRMQLWLNG, the abundance fitness is -0.213 ± 0.12.

With QEVDTIELTRQVKEKLAKNGICQRIFGEKVLGLSQGSVSDMLSRPKPWSKLTQKGREPFNRMQLWLNG, the abundance fitness was -0.051 ± 0.094.

As for QEVDTIELTRQVKEKLAKNGICQRIFGEKVLGLSQGSVSDMLSRPKPWSKLTQKGREPFFRMQLWLNG, the abundance fitness was -0.205 ± 0.12.

On to QEVDTIELTRQVKEKLAKNGICQRIFGEKVLGLSQGSVSDMLSRPKPWSKLTQKGREPFSRMQLWLNG, for which the abundance fitness was -0.141 ± 0.062.

For QEVDTIELTRQVKEKLAKNGICQRIFGEKVLGLSQGSVSDMLSRPKPWSKLTQKGREPFWRMQLWLNG, the abundance fitness was -0.334 ± 0.075.

On to QEVDTIELTRQVKEKLAKNGICQRIFGEKVLGLSQGSVSDMLSRPKPWSKLTQKGREPFCRMQLWLNG, for which the abundance fitness was -0.139 ± 0.12.

For the variant QEVDTIELTRQVKEKLAKNGICQRIFGEKVLGLSQGSVSDMLSRPKPWSKLTQKGREPFVRMQLWLNG, the abundance fitness came out at 0.025 ± 0.059.

Take QEVDTIELTRQVKEKLAKNGICQRIFGEKVLGLSQGSVSDMLSRPKPWSKLTQKGREPFMRMQLWLNG: the abundance fitness was -0.054 ± 0.063.

With QEVDTIELTRQVKEKLAKNGICQRIFGEKVLGLSQGSVSDMLSRPKPWSKLTQKGREPFPRMQLWLNG, the abundance fitness was -0.911 ± 0.17.

For the variant QEVDTIELTRQVKEKLAKNGICQRIFGEKVLGLSQGSVSDMLSRPKPWSKLTQKGREPFRRMQLWLNG, the abundance fitness was determined as 0.071 ± 0.058.

For QEVDTIELTRQVKEKLAKNGICQRIFGEKVLGLSQGSVSDMLSRPKPWSKLTQKGREPFYRMQLWLNG, the abundance fitness worked out at 0.004 ± 0.093.

Regarding QEVDTIELTRQVKEKLAKNGICQRIFGEKVLGLSQGSVSDMLSRPKPWSKLTQKGREPFARMQLWLNG, the abundance fitness was -0.073 ± 0.073.

As for QEVDTIELTRQVKEKLAKNGICQRIFGEKVLGLSQGSVSDMLSRPKPWSKLTQKGREPFGRMQLWLNG, the abundance fitness is -0.383 ± 0.067.
